Reference: patent US20250222128A1, “ANTIBODY DRUG-CONJUGATES TARGETING C-MET AND METHODS OF USE THEREOF” (Zymeworks BC Inc., priority 2022, published 2025)
Entries after “also recorded” stand apart in the source; their conditions may differ.

Experiments:
Format in all cases: cell-based
[1] = test system: AKT phosphorylation in H441 lung cancer cells; test: cMet pathway agonism by Phospho-AKT ELISA; conditions: 100 nM, up to 60 minutes, FIG. 5B and FIG. 7
Protocol: (§1) cMet pathway agonism of the anti-cMet antibody variant v17427 (HetFc, unmodified hinge) and ADCs comprising variant v17427 stochastically cysteine-conjugated to Drug-Linker 001 or MCvcPABC-MMAE at DAR 4 was assessed by cell proliferation and ELISA to measure for AKT phosphorylation as a downstream indicator of cMET activation.
(§2) Phospho-AKT ELISA: Briefly, H441 or H596 lung cancer cells were detached with Cell Dissociation Buffer, seeded in 24-well tissue culture plates with RPMI-1640+10% FBS at a density of 50,000 cells/well, and incubated overnight (37° C., 5% CO2). Cells were then serum starved overnight (37° C., 5% CO2) by replacing the complete growth medium with serum-free RPMI-1640. […] Lysate protein concentration was assessed by a BCA protein assay (Thermo Fisher Scientific Inc., Cat. No. 23223 and 23224). Phospho-AKT levels in 10 μg of lysate was assessed using the PathScan® Phospho-Akt1 (Ser473) Sandwich ELISA Kit (Cell Signaling Technology, Cat. No. 7160C) as per manufacturer's instructions. Absorbance at 450 nm was measured using a Synergy™ H1 microplate (BioTek Instruments, Winooski, VT). Fold AKT phosphorylation was calculated by subtracting background A450 nm signal from all wells using signal blank wells, and then normalizing to the A450 nm signal of untreated cells at each corresponding timepoint. […]

[2] = test system: H596 lung cancer cells; test: cMet pathway agonism by cell proliferation; conditions: serum starved cells; titration of test article; 6 days; FIG. 4 and FIG. 6
Protocol: as §1
Cell proliferation: Briefly, H596 lung cancer cells were serum starved overnight (37° C., 5% CO2) by replacing the complete growth medium with serum-free RPMI-1640 (Thermo Fisher Scientific Inc., Waltham, MA; Cat. No. A1049101). Cells were then detached with Cell Dissociation Buffer (Thermo Fisher Scientific Inc., Cat. No. 13151014), resuspended in RPMI-1640 supplemented with 1% FBS (v/v) (Thermo Fisher Scientific Inc., Cat. No. 12483-020) and seeded in 384-well tissue culture plates at a density of 1,000 cells/well. […] After incubation, CellTiter-Glo® reagent (Promega Corporation, Madison, WI; Cat. No. G7570) was spiked in all wells and luminescence corresponding to ATP present in each well was measured using a Synergy™ H1 microplate (BioTek Instruments, Winooski, VT). Based on untreated cells (no test article added), % viability values were calculated using ATP measurement RLU values (Relative Light Units) and plotted against test article concentration using GraphPad Prism 8 software (GraphPad Software, San Diego, CA). […]

[3] = test system: AKT phosphorylation in H596 lung cancer cells; test: cMet pathway agonism by Phospho-AKT ELISA; conditions: 100 nM, up to 60 minutes, FIG. 5A
Protocol: as §1, §2

B1: v17429: control antibody, bivalent version of the anti-cMet antibody MetMab (onartuzumab), HetFc (antibody, chains of the INN, looked up, V domains shown)
VH: EVQLVESGGGLVQPGGSLRLSCAASGYTFTSYWLHWVRQAPGKGLEWVGMIDPSNSDTRFNPNFKDRFTISADTSKNTAYLQMNSLRAEDTAVYYCATYRSYVTPLDYWGQGTLVTVSS
VL: DIQMTQSPSSLSASVGDRVTITCKSSQSLLYTSSQKNYLAWYQQKPGKAPKLLIYWASTRESGVPSRFSGSGSGTDFTLTISSLQPEDFATYYCQQYYAYPWTFGQGTKVEIK
modifications: bivalent IgG, HetFc
B1 was tested, and the AKT phosphorylation [1] was “strong AKT phosphorylation; also recorded: strongly induced phosphorylation”, the “H596 proliferation compared to untreated controls” value [2] was “dose-dependent increase in H596 proliferation; also recorded: strong dose-dependent increase in proliferation” and the AKT phosphorylation [3] was “strong AKT phosphorylation”.
